The supplement of paper PMC11246515
± gives the standard deviation of the averaged measurements.

Assay: total protein half-life in vivo (active degradation + dilution); higher = more stable protein
[1] = E. coli NCM3722 delta-clpP delta-lon delta-hslV, growth: N-lim chemostat, doubling time 6 h
[2] = E. coli NCM3722 delta-clpP, growth: N-lim chemostat, doubling time 6 h
[3] = E. coli NCM3722 delta-hslV, growth: N-lim chemostat, doubling time 6 h
[4] = E. coli NCM3722 delta-lon, growth: N-lim chemostat, doubling time 6 h
[5] = E. coli NCM3722 delta-smpB, growth: N-lim chemostat, doubling time 6 h
[6] = wild type E. coli NCM3722, growth: C-lim chemostat, doubling time 3 h
[7] = wild type E. coli NCM3722, growth: C-lim chemostat, doubling time 6 h
[8] = wild type E. coli NCM3722, growth: C-lim chemostat, doubling time 12 h
[9] = wild type E. coli NCM3722, growth: N-lim chemostat, doubling time 6 h
[10] = wild type E. coli NCM3722, growth: N-lim chemostat, doubling time 12 h
[11] = wild type E. coli NCM3722, growth: P-lim chemostat, doubling time 6 h
[12] = wild type E. coli NCM3722, growth: P-lim chemostat, doubling time 12 h

| Sequence | total protein half-life in vivo [1] [h] | total protein half-life in vivo [2] [h] | total protein half-life in vivo [3] [h] | total protein half-life in vivo [4] [h] | total protein half-life in vivo [5] [h] | total protein half-life in vivo [6] [h] | total protein half-life in vivo [7] [h] | total protein half-life in vivo [8] [h] | total protein half-life in vivo [9] [h] | total protein half-life in vivo [10] [h] | total protein half-life in vivo [11] [h] | total protein half-life in vivo [12] [h] |
| --- | --- | --- | --- | --- | --- | --- | --- | --- | --- | --- | --- | --- |
| MSCPVIELTQQLIRRPSLSPDDAGCQALLIERLQAIGFTVERMDFADTQNFWAWRGQGETLAFAGHTDVVPPGDADRWINPPFEPTIRDGMLFGRGAADMKGSLAAMVVAAERFVAQHPNHTGRLAFLITSDEEASAHNGTVKVVEALMARNERLDYCLVGEPSSIEVVGDVVKNGRRGSLTCNLTIHGVQGHVAYPHLADNPVHRAAPFLNELVAIEWDQGNEFFPATSMQIANIQAGTGSNNVIPGELFVQFNFRFSTELTDEMIKAQVLALLEKHQLRYTVDWWLSGQPFLTARGKLVDAVVNAVEHYNEIKPQLLTTGGTSDGRFIARMGAQVVELGPVNATIHKINECVNAADLQLLARMYQRIMEQLVA [P0AED7] | 4.94 ± 0.53 | 4.52 ± 0.093 | 4.42 ± 0.081 | 5.76 ± 1.5 | 4.4 ± 0.41 | 3.05 ± 0.25 | 5.7 ± 0.46 | 9.7 ± 0.28 | 4.418 ± 0.036 | 7.37 ± 0.72 | 5.6 ± 0.48 | 11 ± 1.8 |
| MSDDMSMGLPSSAGEHGVLRSMQEVAMSSQEASKMLRTYNIAWWGNNYYDVNELGHISVCPDPDVPEARVDLAQLVKTREAQGQRLPALFCFPQILQHRLRSINAAFKRARESYGYNGDYFLVYPIKVNQHRRVIESLIHSGEPLGLEAGSKAELMAVLAHAGMTRSVIVCNGYKDREYIRLALIGEKMGHKVYLVIEKMSEIAIVLDEAERLNVVPRLGVRARLASQGSGKWQSSGGEKSKFGLAATQVLQLVETLREAGRLDSLQLLHFHLGSQMANIRDIATGVRESARFYVELHKLGVNIQCFDVGGGLGVDYEGTRSQSDCSVNYGLNEYANNIIWAIGDACEENGLPHPTVITESGRAVTAHHTVLVSNIIGVERNEYTVPTAPAEDAPRALQSMWETWQEMHEPGTRRSLREWLHDSQMDLHDIHIGYSSGIFSLQERAWAEQLYLSMCHEVQKQLDPQNRAHRPIIDELQERMADKMYVNFSLFQSMPDAWGIDQLFPVLPLEGLDQVPERRAVLLDITCDSDGAIDHYIDGDGIATTMPMPEYDPENPPMLGFFMVGAYQEILGNMHNLFGDTEAVDVFVFPDGSVEVELSDEGDTVADMLQYVQLDPKTLLTQFRDQVKKTDLDAELQQQFLEEFEAGLYGYTYLEDE | 4.96 ± 0.56 | 4.38 ± 0.22 | 4.3 ± 0.57 | 4.28 ± 0.16 | 3.97 ± 0.11 | 2.872 ± 0.017 | 5.43 ± 0.37 | 9.85 ± 0.33 | 3.93 ± 0.19 | 5.91 ± 0.16 | 5.54 ± 0.16 | 11.5 ± 0.38 |
| MSDEGLAPGKRLSEIRQQQGLSQRRAAELSGLTHSAISTIEQDKVSPAISTLQKLLKVYGLSLSEFFSEPEKPDEPQVVINQDDLIEMGSQGVSMKLVHNGNPNRTLAMIFETYQPGTTTGERIKHQGEEIGTVLEGEIVLTINGQDYHLVAGQSYAINTGIPHSFSNTSAGICRIISAHTPTTF [P0A9U6] | 5.35 ± 0.67 | 5.41 ± 3.1 | 3.29 | 4.06 ± 0.25 | 2.66 ± 0.063 | – | 4.03 ± 0.12 | 5.53 ± 0.11 | 2.7 ± 0.51 | 3.47 ± 0.064 | 4.43 ± 0.92 | 6.69 ± 0.82 |
| MSDKKKRSMAGLPWIAAMAFFMQALDATILNTALPAIAHSLNRSPLAMQSAIISYTLTVAMLIPVSGWLADRFGTRRIFTLAVSLFTLGSLACALSNSLPQLVVFRVIQGIGGAMMMPVARLALLRAYPRNELLPVLNFVAMPGLVGPILGPVLGGVLVTWATWHWIFLINIPIGIAGLLYARKHMPNFTTARRRFDITGFLLFGLSLVLFSSGIELFGEKIVASWIALTVIVTSIGLLLLYILHARRTPNPLISLDLFKTRTFSIGIVGNIATRLGTGCVPFLMPLMLQVGFGYQAFIAGCMMAPTALGSIIAKSMVTQVLRRLGYRHTLVGITVIIGLMIAQFSLQSPAMAIWMLILPLFILGMAMSTQFTAMNTITLADLTDDNASSGNSVLAVTQQLSISLGVAVSAAVLRVYEGMEGTTTVEQFHYTFITMGIITVASAAMFMLLKTTDGNNLIKRQRKSKPNRVPSESE | 6.64 | – | – | – | – | – | – | – | – | – | 5.92 | – |
| MSDLHNESIFITGGGSGLGLALVERFIEEGAQVATLELSAAKVASLRQRFGEHILAVEGNVTCYADYQRAVDQILTRSGKLDCFIGNAGIWDHNASLVNTPAETLETGFHELFNVNVLGYLLGAKACAPALIASEGSMIFTLSNAAWYPGGGGPLYTASKHAATGLIRQLAYELAPKVRVNGVGPCGMASDLRGPQALGQSETSIMQSLTPEKIAAILPLQFFPQPADFTGPYVMLTSRRNNRALSGVMINADAGLAIRGIRHVAAGLDL [P0CI31] | 6.21 ± 0.63 | – | – | – | – | – | – | – | – | – | 3.6 ± 0.55 | – |
| MSDNDELQQIAHLRREYTKGGLRRRDLPADPLTLFERWLSQACEAKLADPTAMVVATVDEHGQPYQRIVLLKHYDEKGMVFYTNLGSRKAHQIENNPRVSLLFPWHTLERQVMVIGKAERLSTLEVMKYFHSRPRDSQIGAWVSKQSSRISARGILESKFLELKQKFQQGEVPLPSFWGGFRVSLEQIEFWQGGEHRLHDRFLYQRENDAWKIDRLAP [P0AFI7] | 4.89 ± 0.34 | 4.63 ± 0.17 | 4.2 ± 0.047 | 4.66 ± 0.076 | 4.39 ± 0.58 | 3.53 ± 0.6 | 5.55 ± 0.32 | 10.8 ± 1.7 | 4.14 ± 0.077 | 8.66 ± 0.44 | 5.65 ± 0.12 | 11.2 ± 0.29 |
| MSDQFDAKAFLKTVTSQPGVYRMYDAGGTVIYVGKAKDLKKRLSSYFRSNLASRKTEALVAQIQQIDVTVTHTETEALLLEHNYIKLYQPRYNVLLRDDKSYPFIFLSGDTHPRLAMHRGAKHAKGEYFGPFPNGYAVRETLALLQKIFPIRQCENSVYRNRSRPCLQYQIGRCLGPCVEGLVSEEEYAQQVEYVRLFLSGKDDQVLTQLISRMETASQNLEFEEAARIRDQIQAVRRVTEKQFVSNTGDDLDVIGVAFDAGMACVHVLFIRQGKVLGSRSYFPKVPGGTELSEVVETFVGQFYLQGSQMRTLPGEILLDFNLSDKTLLADSLSELAGRKINVQTKPRGDRARYLKLARTNAATALTSKLSQQSTVHQRLTALASVLKLPEVKRMECFDISHTMGEQTVASCVVFDANGPLRAEYRRYNITGITPGDDYAAMNQVLRRRYGKAIDDSKIPDVILIDGGKGQLAQAKNVFAELDVSWDKNHPLLLGVAKGADRKAGLETLFFEPEGEGFSLPPDSPALHVIQHIRDESHDHAIGGHRKKRAKVKNTSSLETIEGVGPKRRQMLLKYMGGLQGLRNASVEEIAKVPGISQGLAEKIFWSLKH [P0A8G0] | 6.54 ± 0.81 | 5.14 ± 0.15 | 4.77 ± 0.12 | 6.421 ± 0.061 | 4.75 ± 0.15 | 2.84 ± 0.067 | 5.1 ± 0.39 | 7.83 ± 0.25 | 4.84 ± 0.28 | 8.62 ± 0.12 | 4.61 ± 0.15 | 8.48 ± 0.19 |
| MSDSNSRLVYSTETGRIDEPKAAPVRPKGDGVVRIQRQTSGRKGKGVCLITGVDLDDAELTKLAAELKKKCGCGGAVKDGVIEIQGDKRDLLKSLLEAKGMKVKLAGG | 5.12 ± 0.14 | 4.16 | 3.29 ± 0.22 | 4.11 ± 0.81 | 3.04 ± 0.3 | 2.76 ± 0.65 | 4.11 ± 0.38 | 5.29 ± 0.51 | 3.15 | 5.059 ± 0.042 | 3.05 | 5.7 ± 0.6 |
| MSDSQTLVVKLGTSVLTGGSRRLNRAHIVELVRQCAQLHAAGHRIVIVTSGAIAAGREHLGYPELPATIASKQLLAAVGQSRLIQLWEQLFSIYGIHVGQMLLTRADMEDRERFLNARDTLRALLDNNIVPVINENDAVATAEIKVGDNDNLSALAAILAGADKLLLLTDQKGLYTADPRSNPQAELIKDVYGIDDALRAIAGDSVSGLGTGGMSTKLQAADVACRAGIDTIIAAGSKPGVIGDVMEGISVGTLFHAQATPLENRKRWIFGAPPAGEITVDEGATAAILERGSSLLPKGIKSVTGNFSRGEVIRICNLEGRDIAHGVSRYNSDALRRIAGHHSQEIDAILGYEYGPVAVHRDDMITR [P0A7B5] | 3.94 ± 0.49 | 3.94 ± 0.43 | 4.25 ± 0.076 | 5.654 ± 0.012 | 3.57 ± 0.05 | 2.98 ± 0.13 | 5.35 ± 0.17 | 9.09 ± 0.098 | 4.4 ± 0.31 | 9.48 ± 1.3 | 5.69 ± 0.71 | 11.7 ± 0.25 |
| MSDTLLTLRDVHINFPARKNWLGKTTEHVHAINGIDLQIRRGETLGIVGESGCGKSTLAQLLMGMLQPSHGQYIRSGSQRIMQMVFQDPLSSLNPRLPVWRIITEPLWIAKRSSEQQRRALAEELAVQVGIRPEYLDRLPHAFSGGQRQRIAIARALSSQPDVIVLDEPTSALDISVQAQILNLLVTLQENHGLTYVLISHNVSVIRHMSDRVAVMYLGQIVELGDAQQVLTAPAHPYTRLLLDSLPAIDKPLEEEWALRKTDLPGNRTLPQGCFFYERCPLATHGCEVRQSLAIREDGRELRCWRAL | – | 3.45 | – | – | 4.17 ± 0.074 | 1.74 | 4.55 | – | 4.44 | 6.31 ± 0.42 | – | – |
| MSDWNPSLYLHFSAERSRPAVELLARVPLENVEYVADLGCGPGNSTALLQQRWPAARITGIDSSPAMIAEARSALPDCQFVEADIRNWQPVQALDLIFANASLQWLPDHYELFPHLVSLLNPQGVLAVQMPDNWLEPTHVLMREVAWEQNYPDRGREPLAGVHAYYDILSEAGCEVDIWRTTYYHQMPSHQAIIDWVTATGLRPWLQDLTESEQQLFLKRYHQMLEEQYPLQENGQILLAFPRLFIVARRME | 3.89 ± 0.51 | 5.9 ± 1.7 | 4.82 ± 0.7 | 6.54 ± 1.9 | 3.62 ± 0.042 | 3.29 ± 0.6 | – | 9.97 ± 1.8 | 4.14 ± 0.17 | 4.96 | 5.89 ± 0.061 | 11 ± 0.27 |
